Source: patent publication US20190352387A1 (Chugai, published 2019)
Numbering of substitutions follows the chain as printed.

Tests used:
[1] = target: T1, Recombinant mouse sclerostin (mouse, UniProt Q99P68 24-211); experiment: cell-based or functional assay
T1 sequence: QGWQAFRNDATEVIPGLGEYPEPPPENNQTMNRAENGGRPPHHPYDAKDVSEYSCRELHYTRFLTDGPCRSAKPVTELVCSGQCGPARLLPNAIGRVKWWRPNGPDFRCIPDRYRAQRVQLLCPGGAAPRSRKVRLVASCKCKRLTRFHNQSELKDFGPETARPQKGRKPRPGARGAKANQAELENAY

Mouse Fc gamma RIIB = target: T2, Mouse Fc gamma RIIB (mouse, UniProt P08101 30-210, limits assumed); experiment: SPR (Biacore T200), pH 7.4, 25 degrees C; mouse Fc gamma RIIB captured by anti-Histidine antibody; antibody injected at 100 nM alone or as 1:1 immune complex with human sclerostin
T2 sequence (looked up): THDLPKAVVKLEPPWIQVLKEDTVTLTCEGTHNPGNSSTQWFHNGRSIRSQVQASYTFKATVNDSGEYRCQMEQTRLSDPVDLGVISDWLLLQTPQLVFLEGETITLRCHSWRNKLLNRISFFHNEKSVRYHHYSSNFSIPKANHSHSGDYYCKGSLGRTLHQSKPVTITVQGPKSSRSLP
Protocol: The binding of anti-sclerostin antibodies/sclerostin immune complex towards mouse Fc gamma RIIB at pH 7.4 were determined at 25 degrees C. using Biacore T200 instrument (GE Healthcare). All antibodies and mouse Fc gamma RIIB were prepared in ACES pH 7.4 containing 20 mM ACES, 250 mM NaCl, 1.2 mM CaCl₂, 0.05% Tween 20, 1 mg/ml BSA, 1 mg/ml carboxymethyl dextran (CMD), 0.005% NaN₃. Anti-Histidine antibody (GE Healthcare) was immobilized onto all flow cells of a CM4 sensor chip using amine coupling kit (GE Healthcare). Mouse Fc gamma RIIB was captured on flow cell 2 by anti-Histidine antibody with flow cell 1 as reference flow cell. Mouse Fc gamma RIIB capture levels were aimed at 400 resonance unit (RU). All antibodies were injected at 100 nM over all flow cells. Immune complexes were prepared by mixing 1:1 molar ratio of antibody and human sclerostin and incubated at room temperature for one hour. Sensor surface was regenerated each cycle with 10 mM Glycine-HCl, pH1.5.

[2] = target: T3, Recombinant human sclerostin (human, UniProt Q9BQB4 24-213); experiment: SPR; captured antibody, recombinant human SOST as analyte; response normalised by the capture level of the antibody [panel abL081]
T3 construct: Whole entry as named; Secreted recombinant protein purified from FreeStyle293-F conditioned medium; also called human-SOST; Human SOST
T3 sequence: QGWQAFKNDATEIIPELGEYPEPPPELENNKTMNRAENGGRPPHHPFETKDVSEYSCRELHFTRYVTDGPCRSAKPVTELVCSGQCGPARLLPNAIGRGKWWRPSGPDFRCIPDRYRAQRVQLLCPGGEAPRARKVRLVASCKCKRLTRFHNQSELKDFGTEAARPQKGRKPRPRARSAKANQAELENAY

[3] = target: T3, Recombinant human sclerostin; experiment: SPR; captured antibody, recombinant human SOST as analyte; response normalised by the capture level of the antibody [panel abL063]
[4] = target: T3, Recombinant human sclerostin; experiment: SPR; captured antibody, recombinant human SOST as analyte; response normalised by the capture level of the antibody [panel abL083]
[5] = target: T3, Recombinant human sclerostin; experiment: SPR; captured antibody (SG1/SK1 constant regions), recombinant human SOST as analyte; response normalised by the capture level of the antibody [panel mabAL]
[6] = target: T3, Recombinant human sclerostin; experiment: SPR; captured antibody (SG1/SK1 constant regions), recombinant human SOST as analyte; response normalised by the capture level of the antibody [panel mabBL]
[7] = target: T4, Recombinant cynomolgus monkey sclerostin (cynomolgus monkey, UniProt Q9BG78 24-213 (Chlorocebus aethiops entry)); experiment: SPR (Biacore T200), 37 C, dissociation at pH 5.8 of complex formed at pH 7.4
T4 construct: Whole entry as named; expressed and purified as the human counterpart; also called cyno-SOST; cyno SOST
T4 chain: T3 sequence with P70Q, E129A, T161P, S178G
Protocol: (§1) The affinity of anti-sclerostin variants binding to human, cynomolgus monkey (cyno), rat, or mouse sclerostin at pH 7.4 and pH 5.8 were determined at 37 degrees C. using Biacore T200 instrument (GE Healthcare). Anti-human Fc (GE Healthcare) was immobilized onto all flow cells of a CM4 sensor chip using amine coupling kit (GE Healthcare). All antibodies and analytes were prepared in ACES pH7.4 or pH 5.8 buffer containing 20 mM ACES, 150 mM NaCl, 1.2 mM CaCl₂, 0.05% Tween 20, 0.005% NaN₃. Each antibody was captured onto the sensor surface by anti-human Fc. […] Sensor surface was regenerated each cycle with 3M MgCl₂.
(§2) The pH dependent interaction assessment was determined by a modified Biacore assay. Briefly, an additional dissociation phase at pH5.8 was integrated into the Biacore assay immediately after dissociation phase at pH7.4. This is to assess the pH-dependent dissociation between antibody and antigen from the complexes formed at pH7.4. The dissociation rate at pH5.8 buffer was determined by processing and fitting data using Scrubber 2.0 (BioLogic Software) curve fitting software.

[8] = target: T3, Recombinant human sclerostin; experiment: as above
Protocol: as §1, §2

[9] = target: T3, Recombinant human sclerostin; experiment: SPR (Biacore T200), 37 C, antibody captured by anti-human Fc, sclerostin as analyte, pH 7.4
Protocol: as §1

[10] = target: T1, Recombinant mouse sclerostin; experiment: SPR (Biacore T200), 37 C, antibody captured by anti-human Fc, sclerostin as analyte, pH 5.8; pH 5.8
Protocol: as §1

[11] = target: T4, Recombinant cynomolgus monkey sclerostin; experiment: SPR (Biacore T200), 37 C, antibody captured by anti-human Fc, sclerostin as analyte, pH 5.8
Protocol: as §1

[12] = target: T1, Recombinant mouse sclerostin; experiment: SPR (Biacore T200), 37 C, antibody captured by anti-human Fc, sclerostin as analyte, pH 7.4; pH 7.4
Protocol: as §1

[13] = target: T4, Recombinant cynomolgus monkey sclerostin; experiment: SPR (Biacore T200), 37 C, antibody captured by anti-human Fc, sclerostin as analyte, pH 7.4
Protocol: as §1

[14] = target: T3, Recombinant human sclerostin; experiment: SPR (Biacore T200), 37 C, antibody captured by anti-human Fc, sclerostin as analyte, pH 5.8
Protocol: as §1

[15] = target: T1, Recombinant mouse sclerostin; experiment: SPR (Biacore T200), 37 C, dissociation at pH 5.8 of complex formed at pH 7.4
Protocol: as §1, §2

[16] = target: T5, Recombinant rat sclerostin (rat, UniProt Q99P67 29-213); experiment: as above
T5 construct: Whole entry as named; also called rat-SOST
T5 sequence: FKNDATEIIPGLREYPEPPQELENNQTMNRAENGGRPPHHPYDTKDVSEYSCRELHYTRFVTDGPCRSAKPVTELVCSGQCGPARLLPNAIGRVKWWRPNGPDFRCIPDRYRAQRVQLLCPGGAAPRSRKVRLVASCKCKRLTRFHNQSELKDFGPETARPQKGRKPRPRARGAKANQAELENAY
Protocol: as §1, §2

[17] = target: T5, Recombinant rat sclerostin; experiment: SPR (Biacore T200), 37 C, antibody captured by anti-human Fc, sclerostin as analyte, pH 5.8
Protocol: as §1

[18] = target: T4, Recombinant cynomolgus monkey sclerostin; experiment: SPR (Biacore), dissociation at pH 7.4
Protocol: as §1

[19] = target: T3, Recombinant human sclerostin; experiment: SPR (Biacore), dissociation at pH 7.4
Protocol: as §1

B1: mabB//mabA-BS01 (bispecific antibody, human IgG1, kappa)
heavy 1: QVQLVQSGAEVKKPGASVKVSCKVSGFPIKDTFQHWVRQAPGKGLEWMGWSDPEIGDTEYASKFQGRVTMTEDTSTDTAYMELSSLRSEDTAVYYCATGDTTYKFDFWGQGTTVTVSSASTKGPSVFPLAPSSRSTSESTAALGCLVKDYFPEPVTVSWNSGALTSGVHTFPAVLQSSGLYSLSSVVTVPSSSLGTKTYTCNVDHKPSNTKVDKRVEPKSCDKTHTCPPCPAPELLGGPSVFLFPPKPKDTLMISRTPEVTCVVVDVSQEDPEVQFNWYVDGVEVHNAKTKPREEQFNSTYRVVSVLTVLHQDWLNGKEYKCKVSNKGLPSSIEKTISKAKGQPREPQVYTLPPSREEMTKNQVSLTCLVKGFYPSDIAVEWESNGQPENNYKTTPPYLDSDGSFFLYSKLTVDKSRWQQGNVFSCSVMHEALHNHYTQESLSLSP
light 1: DIQMTQSPSSLSASVGDRVTITCKASQDVHTAVAWYQQKPGKAPKLLIYWASTRWTGVPSRFSGSGSGTDFTLTISSLQPEDFATYYCQQYSDYPWTFGGGTKVEIKRTVAAPSVFIFPPSDEQLKSGTASVVCLLNNFYPREAKVQWKVDNALQSGNSQESVTEQDSKDSTYSLSSTLTLSKADYEKHKVYACEVTHQGLSSPVTKSFNRGEC
heavy 2: EVQLVQSGAEVKKPGASVKVSCKASGYTFTDYNMHWVRQAPGQGLEWMGEINPNSGGAGYNQKFKGRVTMTTDTSTSTAYMELRSLRSDDTAVYYCARLGYDDIYDDWYFDVWGQGTTVTVSSASTKGPSVFPLAPSSRSTSESTAALGCLVKDYFPEPVTVSWNSGALTSGVHTFPAVLQSSGLYSLSSVVTVPSSSLGTKTYTCNVDHKPSNTKVDKRVEPKSCDKTHTCPPCPAPELLGGPSVFLFPPKPKDTLMISRTPEVTCVVVDVSQEDPEVQFNWYVDGVEVHNAKTKPREEQFNSTYRVVSVLTVLHQDWLNGKEYKCKVSNKGLPSSIEKTISKAKGQPREPQVYTLPPSRKEMTKNQVSLTCLVKGFYPSDIAVEWESNGQPENNYKTTPPYLDSDGSFFLYSKLTVDKSRWQQGNVFSCSVMHEALHNHYTQKSLSLSP
light 2: not shown
IC50 (read off the curve); Wnt1-induced TCF/LEF luciferase reporter in HEK293T cells, % Inhibition of mouse SOST [1]: ~7 µg/mL | binding result (Mouse Fc gamma RIIB): binds

B2: mabB heavy chain combined with light chain variant abL081 (antibody, human IgG1, kappa, V domains shown)
VH: QVQLVQSGAEVKKPGASVKVSCKVSGFPIKDTFQHWVRQAPGKGLEWMGWSDPEIGDTEYASKFQGRVTMTEDTSTDTAYMELSSLRSEDTAVYYCATGDTTYKFDFWGQGTTVTVSS
VL: DIQMTQSPSSLSASVGDRVTITCRASQDIHTYLAWYQQKPGKAPKLLIYWASTRWSGVPSRFSGSGSGTDFTLTISSLQPEDFATYYCQQGDTLPYTFGGGTKVEIKR
notes: also called abL081 with the mabB heavy chain
binding result [2]: binds

B3: mabB heavy chain combined with light chain variant abL063 (antibody, human IgG1, kappa, V domains shown)
VH: B2 VH
VL: B2 VL with H30S, Y32A, R54L
notes: also called abL063 with the mabB heavy chain
binding result [3]: binds

B4: mabB heavy chain combined with light chain variant abL083 (antibody, human IgG1, kappa, V domains shown)
VH: B2 VH
VL: B2 VL with W55L
notes: also called abL083 with the mabB heavy chain
binding result [4]: binds

B5: mabB heavy chain combined with the mabA light chain (mabAL) (antibody, human IgG1, kappa, V domains shown)
VH: B2 VH
VL: B2 VL with H30S, T31N, A34N, W50Y, A51T, T53R, R54L, W55L
notes: also called mabAL with the mabB heavy chain; Light chain A with the mabB heavy chain
binding result [5]: no binding

B6: mabA heavy chain combined with the mabB light chain (mabBL) (antibody, human IgG1, kappa, V domains shown)
VH: EVQLVQSGAEVKKPGASVKVSCKASGYTFTDYNMHWVRQAPGQGLEWMGEINPNSGGAGYNQKFKGRVTMTTDTSTSTAYMELRSLRSDDTAVYYCARLGYDDIYDDWYFDVWGQGTTVTVSS
VL: B2 VL with R24K, I29V, Y32A, L33V, S56T, G91Y, D92S, T93D, L94Y, Y96W
notes: also called mabBL with the mabA heavy chain; Light chain B with the mabA heavy chain
binding result [6]: no binding

B7: mabA (antibody, V domains shown)
VH: B6 VH
VL: DIQMTQSPSSLSASVGDRVTITCRASQDISNYLNWYQQKPGKAPKLLIYYTSRLLSGVPSRFSGSGSGTDFTLTISSLQPEDFATYYCQQGDTLPYTFGGGTKVEIK
koff [7]: 0.00697 s⁻¹ | koff [8]: 0.00631 s⁻¹ | Kd [9]: 0.08 nM | Kd [10]: < 0.01 nM | Kd [11]: 1.4 nM | Kd [12]: < 0.01 nM

B8: mabA_NpH2 (antibody, V domains shown)
VH: B6 VH
VL: B7 VL with Y50H
koff [7]: 0.0018 s⁻¹ | koff [8]: 0.0023 s⁻¹ | Kd [13]: 0.28 nM | Kd [14]: 0.69 nM

B9: mabA_pH1 (antibody, V domains shown)
VH: B6 VH with G57H, G100H
VL: B7 VL with Q27H
koff [15]: 0.0107 s⁻¹ | koff [16]: 0.0059 s⁻¹ | Kd [17]: 4.2 nM

B10: amH852/abL152 (antibody, V domains shown)
VH: B6 VH with Q43K, N52M, N54H, G57R, A58Y, Y60L, N61K, G100E, D102S, D103E
VL: B7 VL with Q27E, D28G, S30H, N31D, Y32A, N34A, Y50W, T51A, R53T, L55E
notes: Homodimeric antibody
koff [18]: 0.0019 s⁻¹

B11: bsH638/abL152 (antibody, V domains shown)
VH: B2 VH with F27Y, P28T, I29L, K30T, D31H, Q34M, T58H, F107Y, T113L
VL: B7 VL with Q27E, D28G, S30H, N31D, Y32A, N34A, Y50W, T51A, R53T, L55E
notes: Homodimeric antibody
koff [19]: 0.0093 s⁻¹
